Test system: K4 kissing-loop RNA reporter
Assay: apparent KD of K4 kissing-loop reporter; higher = weaker reporter binding
Conditions: Eterna round: R107
Description: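 RNA-MaP round R107: designed RNA switches with theophylline, tryptophan, arginine or FMN aptamers are transcribed on-chip within common flanks. They are titrated with a labelled K4 kissing-loop RNA reporter in RNA-MaP buffer (100 mM Tris pH 7.5, 80 mM KCl, 4 mM MgCl2), without ligand or with the indicated ligand. Median apparent KD per design.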

[1] = input ligand: theophylline 20 uM
[2] = input ligand: tryptophan 2.4 mM
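Further: bound reporter read as fluorescence of individual clusters on recovered sequencing chips by microscopy, with normalized cluster intensities fitted with a binding model.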

Sequence | apparent KD of K4 kissing-loop reporter (input ligand: FMN 200 uM) | apparent KD of K4 kissing-loop reporter (input ligand: arginine 13.2 mM) | apparent KD of K4 kissing-loop reporter (input ligand: none) | apparent KD of K4 kissing-loop reporter [1] | apparent KD of K4 kissing-loop reporter [2]
UGUACCGAGUCAGGAUAUGGCGUCGAAAGACGAAUCCUAGUGAUGUUAGCGAUCUGCGAAAGCAGUCCAGAAGGGACUUGGUACU [FmnBS 26 C50] | 219 nM | 338 nM | 438 nM | 371 nM | 290 nM
UGUACCGAGUCAGGAUAUGGCGUCGAAAGACGAAUUCUAGUGAUGUUAGGGAUCUGCGAAAGCAGUCCAGAAGGGACUUGGUACU [FmnBS 26 U36] | 322 nM | 439 nM | 607 nM | 692 nM | 542 nM
UGUACCGAGUCAGGAUAUGGUAUACCGGAAACGGACCAGUGAUGUUGGAGGCGAAAGCCAUAAAAUCCAGAAGGGACUUGGUACU [FmnBS 19 #SwitchBubble #StaticStem #DoubleMagnetSystem] | 223 nM | 569 nM | 614 nM | 893 nM | 411 nM
UGUACCGAGUCAGGAUAUGUCGUCGAAAGACGAAAUGGAGUGAUGUUCCUUAAACUGCGAAAGCAGACAGAAGGGACUUGGUACU [FmnBS 29 #SwitchBubble #StaticStem #DoubleMagnetSystem] | 160 nM | 278 nM | 385 nM | 331 nM | 274 nM
UGUAUGGACUGAAGGAGCGCUAGGAGUGUGAGUGAUGUUCAUACAAAUGUAUAGAUGGUCUGGCAGGUAGGUCGCAGUCCAUACU [KL-SSArg B4] | 258 nM | 145 nM | 203 nM | 156 nM | 184 nM
UGUCAUGGAAACAUGAACGUUGAAAUAAGACGAGGACCGGUACGGCCGCCACUCGAAUAAUGGUCAGUGAUGUUGACUGGAAUAA [KL-SSTryp-A form1 sub7 #dotplot2>1] | 60.5 nM | 104 nM | 70.3 nM | 103 nM | 61.3 nM
UGUCAUGGAAACAUGAACGUUGAAAUAUGACGAGGACCGGUACGGCCGCCACUCGAGUAAUGGUCAGUGAUGUUGACUGGAUUAA [KL-SSTryp-A form1 sub5 #split stat1] | 59.9 nM | 110 nM | 81.9 nM | 103 nM | 51.9 nM
UGUCAUUGGUCGGCCGCCACUAGAAGGUCAAAGACCAUAGAGUGAUGUUCUAAGACGAAAGUCACUAGGACCGGGACCGAUGACU [TrypBS 1 #SwitchBubble #K4Middle] | 744 nM | 1080 nM | 899 nM | 946 nM | 207 nM
UGUCAUUGGUCGGCCGCCACUAGGACCGGGAGUAACCUAGUGAUGUUAGUGUGCUCGGCCGCCACUAGGACCGGGACCGAUGACU [KL-SSTryp-B22 #DoubleAptamer] | 180 nM | 164 nM | 157 nM | 165 nM | 103 nM
UGUCAUUGGUCGGCCGCCACUCCAUAAAGAGUGAUGUUCUAAAAGACGGAUCGAAAGAUCUGUCGGAGGACCGGGACCGAUGACU [FiskerMod 4 - Jieux - Same State - Tryptophan B] | 1190 nM | 555 nM | 1090 nM | 549 nM | 243 nM
UGUCAUUGGUCGGCCGCCACUUUGUAUGGAGUGAUGUUUUGUAGAUUGUGUUGAAAGGUGUGGUGAAGGACCGGGACCGAUGACU [FiskerMod 24 - Jieux - Same State - Tryptophan B] | 1070 nM | 652 nM | 922 nM | 841 nM | 749 nM
UGUGAACAAAAGUAGAGUGGACCACUAUAGCGAGGACCGGUACGGCCGCCACUCGUGCAUGAAUUCAGUGAUGUUGAAAAGAGCU [whbob_EX_Tryp_A_t12] | 258 nM | 375 nM | 330 nM | 364 nM | 185 nM
UGUGCUGUGUAGUGUAAUGUUAUGCGGGAUACCAGAGUCUUUUUAUUCCCUUGGCAGCUUGAGUGAUGUUUGAUGCUGUUCUUGU [uujmullin] | 303 nM | 305 nM | 350 nM | 371 nM | 287 nM
UGUGGAGAAUAUGAUACCAGCAGAGAGAGAGAGGAAGUAUAGUGAUGUUAUAUGAGAGAAUGCCCUUGGCAGCAUAAGAAGAAGG [SSTheophylB.C] | 144 nM | 119 nM | 140 nM | 216 nM | 192 nM
UGUGGAGGAUAUGAUACCAGCAGUGAGAGAGAGGAAGUAUAGUGAUGUUAUAUGAGAGAAUGCCCUUGGCAGCGUGUGUAGUGGG [SSTheophylB.K] | 184 nM | 137 nM | 146 nM | 176 nM | 145 nM
UGUGUACCGGGAAGGAGCGUGAAUGAUAAUGGAUAUAGUGAUGUUAUAUAUACGAACGAAUCGCAGGUAGGUCGCCCGGAUCCCU [SSArgB.X] | 808 nM | 494 nM | 639 nM | 559 nM | 576 nM

From the supplement of paper PMC9170038
